Data as given in paper PMC9482650, “Quantitative fragmentomics allow affinity mapping of interactomes” (Nature Communications, 2022).
Positions count from the first letter of the chain named.

T1: APBA1_2, Q02410
T1 sequence (Q02410 742-832, limits assumed, looked up): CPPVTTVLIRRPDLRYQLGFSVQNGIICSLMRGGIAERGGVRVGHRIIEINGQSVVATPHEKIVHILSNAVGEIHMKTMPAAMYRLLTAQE

T2: DLG3_1, Q92796
T2 sequence (Q92796 125-227, limits assumed, looked up): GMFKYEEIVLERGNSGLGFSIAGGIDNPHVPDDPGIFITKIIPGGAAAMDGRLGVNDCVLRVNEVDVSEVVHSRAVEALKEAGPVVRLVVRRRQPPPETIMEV

T3: GRIP1_5, Q9Y3R0
T3 sequence (Q9Y3R0 568-668, limits assumed, looked up): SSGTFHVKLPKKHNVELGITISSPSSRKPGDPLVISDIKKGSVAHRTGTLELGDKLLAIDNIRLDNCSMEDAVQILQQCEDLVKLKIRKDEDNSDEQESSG

T4: LIN7A, O14910
T4 sequence (O14910 103-200, limits assumed, looked up): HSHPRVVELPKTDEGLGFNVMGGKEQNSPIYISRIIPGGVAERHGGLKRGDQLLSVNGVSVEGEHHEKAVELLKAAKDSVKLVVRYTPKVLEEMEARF

T5: LIN7C, Q9NUP9
T5 sequence (Q9NUP9 88-185, limits assumed, looked up): T4 sequence (O14910 103-200, limits assumed, looked up) with D13E, V20I, V40I, E42D, K77Q, D78G, S79K, A96S

T6: PARD3B_1, Q8TEW8
T6 sequence (Q8TEW8 196-299, limits assumed, looked up): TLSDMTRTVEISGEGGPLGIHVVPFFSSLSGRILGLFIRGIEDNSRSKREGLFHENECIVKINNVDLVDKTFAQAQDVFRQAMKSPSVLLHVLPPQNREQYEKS

T7: RADIL, Q96JH8
T7 sequence (Q96JH8 971-1071, limits assumed, looked up): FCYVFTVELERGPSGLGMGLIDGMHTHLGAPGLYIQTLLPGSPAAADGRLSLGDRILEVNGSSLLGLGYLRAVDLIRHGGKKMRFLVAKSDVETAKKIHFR

T8: SHANK1, Q9Y566
T8 sequence (Q9Y566 658-767, limits assumed, looked up): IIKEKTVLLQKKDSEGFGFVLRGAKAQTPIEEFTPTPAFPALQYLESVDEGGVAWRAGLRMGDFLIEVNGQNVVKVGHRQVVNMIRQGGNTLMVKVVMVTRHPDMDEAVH

T9: SYNJ2BP, P57105
T9 sequence (P57105 8-110, limits assumed, looked up): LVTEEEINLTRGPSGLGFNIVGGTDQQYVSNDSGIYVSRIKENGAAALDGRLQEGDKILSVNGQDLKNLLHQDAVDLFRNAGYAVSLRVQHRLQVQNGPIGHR

T10: TJP3_3, O95049
T10 sequence (O95049 375-456, limits assumed, looked up): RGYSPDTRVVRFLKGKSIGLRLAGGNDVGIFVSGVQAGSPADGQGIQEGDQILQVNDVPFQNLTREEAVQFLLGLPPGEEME


Target: AHNAK1, Q09666
Sequence (Q09666 4-100): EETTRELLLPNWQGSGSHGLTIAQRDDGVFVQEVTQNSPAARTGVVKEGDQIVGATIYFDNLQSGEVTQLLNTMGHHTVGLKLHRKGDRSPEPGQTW
Assay: holdup assay
Parameters: key: below the threshold = too weak to quantify, mostly under pKd 3.1 to 4
Conditions: plain residues with an end cap or a label only (N-terminal biotin on a linker: ado-ado)

pKd	Binder
below the threshold	DTKNYKQTSV [CRIPT, Q9P021]

Target: T1, APBA1_2, Q02410
Assay: holdup assay
Parameters: key: below the threshold = too weak to quantify, mostly under pKd 3.1 to 4
Conditions: plain residues with an end cap or a label only (N-terminal biotin on a linker: ado-ado)

pKd	Binder
3.73	DTKNYKQTSV [CRIPT, Q9P021]

Target: DLG1_1, Q12959
Assay: holdup assay
Parameters: key: below the threshold = too weak to quantify, mostly under pKd 3.1 to 4
Conditions: plain residues with an end cap or a label only (N-terminal biotin on a linker: ado-ado)

pKd	Binder
4.35	DTKNYKQTSV [CRIPT, Q9P021]

Target: DLG2_2, Q15700
Sequence (Q15700 189-283): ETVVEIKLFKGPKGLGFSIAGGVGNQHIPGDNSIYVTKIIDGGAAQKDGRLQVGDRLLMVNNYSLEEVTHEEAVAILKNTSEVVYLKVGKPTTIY
Assay: holdup assay
Parameters: key: below the threshold = too weak to quantify, mostly under pKd 3.1 to 4
Conditions: plain residues with an end cap or a label only (N-terminal biotin on a linker: ado-ado)

pKd	Binder
4.71	DTKNYKQTSV [CRIPT, Q9P021]

Target: T2, DLG3_1, Q92796
Assay: holdup assay
Parameters: key: below the threshold = too weak to quantify, mostly under pKd 3.1 to 4
Conditions: plain residues with an end cap or a label only (N-terminal biotin on a linker: ado-ado)

pKd	Binder
3.69	DTKNYKQTSV [CRIPT, Q9P021]

Target: DLG4_2, P78352
Sequence (P78352 155-259): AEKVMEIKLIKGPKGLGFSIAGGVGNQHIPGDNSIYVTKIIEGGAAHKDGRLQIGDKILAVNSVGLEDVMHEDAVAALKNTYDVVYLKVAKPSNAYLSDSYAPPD
Assay: holdup assay
Parameters: key: below the threshold = too weak to quantify, mostly under pKd 3.1 to 4
Conditions: plain residues with an end cap or a label only (N-terminal biotin on a linker: ado-ado)

pKd	Binder
4.9	DTKNYKQTSV [CRIPT, Q9P021]

Target: GORASP1, Q9BQQ3
Sequence (Q9BQQ3 1-208): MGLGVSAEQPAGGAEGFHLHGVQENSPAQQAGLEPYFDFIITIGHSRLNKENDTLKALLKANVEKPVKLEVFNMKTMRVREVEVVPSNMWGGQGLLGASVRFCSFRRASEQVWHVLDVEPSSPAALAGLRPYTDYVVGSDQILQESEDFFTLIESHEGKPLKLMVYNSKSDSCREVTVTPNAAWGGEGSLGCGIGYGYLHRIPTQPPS
Assay: holdup assay
Parameters: key: below the threshold = too weak to quantify, mostly under pKd 3.1 to 4
Conditions: plain residues with an end cap or a label only (N-terminal biotin on a linker: ado-ado)

pKd	Binder
below the threshold	DTKNYKQTSV [CRIPT, Q9P021]

Target: T3, GRIP1_5, Q9Y3R0
Assay: holdup assay
Parameters: key: below the threshold = too weak to quantify, mostly under pKd 3.1 to 4
Conditions: plain residues with an end cap or a label only (N-terminal biotin on a linker: ado-ado)

pKd	Binder
below the threshold	DTKNYKQTSV [CRIPT, Q9P021]

Target: GRIP2_3, Q9C0E4
Sequence (Q9C0E4 238-339): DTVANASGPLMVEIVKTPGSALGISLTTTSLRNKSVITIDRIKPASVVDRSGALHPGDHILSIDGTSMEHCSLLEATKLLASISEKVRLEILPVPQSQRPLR
Assay: holdup assay
Parameters: key: below the threshold = too weak to quantify, mostly under pKd 3.1 to 4
Conditions: plain residues with an end cap or a label only (N-terminal biotin on a linker: ado-ado)

pKd	Binder
below the threshold	DTKNYKQTSV [CRIPT, Q9P021]

Target: HTRA2, O43464
Sequence (O43464 355-458): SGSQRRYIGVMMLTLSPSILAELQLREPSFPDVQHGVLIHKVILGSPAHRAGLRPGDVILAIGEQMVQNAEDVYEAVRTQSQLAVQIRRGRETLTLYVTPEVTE
Assay: holdup assay
Parameters: key: below the threshold = too weak to quantify, mostly under pKd 3.1 to 4
Conditions: plain residues with an end cap or a label only (N-terminal biotin on a linker: ado-ado)

pKd	Binder
below the threshold	DTKNYKQTSV [CRIPT, Q9P021]

Target: Inadl_1, Q8NI35
Sequence (Q8NI35 113-229): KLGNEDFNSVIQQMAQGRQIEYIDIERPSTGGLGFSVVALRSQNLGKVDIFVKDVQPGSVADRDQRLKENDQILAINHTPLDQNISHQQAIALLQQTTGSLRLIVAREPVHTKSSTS
Assay: holdup assay
Parameters: key: below the threshold = too weak to quantify, mostly under pKd 3.1 to 4
Conditions: plain residues with an end cap or a label only (N-terminal biotin on a linker: ado-ado)

pKd	Binder
below the threshold	DTKNYKQTSV [CRIPT, Q9P021]

Target: Inadl_2, Q8NI35
Sequence (Q8NI35 238-335): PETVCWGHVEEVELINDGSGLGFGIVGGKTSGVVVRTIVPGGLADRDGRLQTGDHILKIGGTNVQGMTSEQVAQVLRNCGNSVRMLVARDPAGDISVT
Assay: holdup assay
Parameters: key: below the threshold = too weak to quantify, mostly under pKd 3.1 to 4
Conditions: plain residues with an end cap or a label only (N-terminal biotin on a linker: ado-ado)

pKd	Binder
below the threshold	DTKNYKQTSV [CRIPT, Q9P021]

Target: Inadl_9, Q8NI35
Sequence (Q8NI35 1530-1615): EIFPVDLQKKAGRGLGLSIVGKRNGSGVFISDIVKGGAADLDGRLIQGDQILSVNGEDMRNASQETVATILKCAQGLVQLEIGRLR
Assay: holdup assay
Parameters: key: below the threshold = too weak to quantify, mostly under pKd 3.1 to 4
Conditions: plain residues with an end cap or a label only (N-terminal biotin on a linker: ado-ado)

pKd	Binder
below the threshold	DTKNYKQTSV [CRIPT, Q9P021]

Target: T4, LIN7A, O14910
Assay: holdup assay
Parameters: key: below the threshold = too weak to quantify, mostly under pKd 3.1 to 4
Conditions: plain residues with an end cap or a label only (N-terminal biotin on a linker: ado-ado)

pKd	Binder
3.56	DTKNYKQTSV [CRIPT, Q9P021]

Target: T5, LIN7C, Q9NUP9
Assay: holdup assay
Parameters: key: below the threshold = too weak to quantify, mostly under pKd 3.1 to 4
Conditions: plain residues with an end cap or a label only (N-terminal biotin on a linker: ado-ado)

pKd	Binder
3.5	DTKNYKQTSV [CRIPT, Q9P021]

Target: MAGI1_1, Q96QZ7
Sequence (Q96QZ7 1-106): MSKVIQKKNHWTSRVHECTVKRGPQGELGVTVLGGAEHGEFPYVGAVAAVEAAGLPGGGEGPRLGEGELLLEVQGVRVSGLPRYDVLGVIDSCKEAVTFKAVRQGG
Assay: holdup assay
Parameters: key: below the threshold = too weak to quantify, mostly under pKd 3.1 to 4
Conditions: plain residues with an end cap or a label only (N-terminal biotin on a linker: ado-ado)

pKd	Binder
below the threshold	DTKNYKQTSV [CRIPT, Q9P021]

Target: MAGI1_2, Q96QZ7
Sequence (Q96QZ7 456-580): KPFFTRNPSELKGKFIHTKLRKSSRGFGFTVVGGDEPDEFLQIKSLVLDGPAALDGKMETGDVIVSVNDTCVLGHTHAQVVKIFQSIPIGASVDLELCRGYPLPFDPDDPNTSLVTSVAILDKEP
Assay: holdup assay
Parameters: key: below the threshold = too weak to quantify, mostly under pKd 3.1 to 4
Conditions: plain residues with an end cap or a label only (N-terminal biotin on a linker: ado-ado)

pKd	Binder
4.32	DTKNYKQTSV [CRIPT, Q9P021]

Target: MAGI2_5, Q86UL8
Sequence (Q86UL8 915-1017): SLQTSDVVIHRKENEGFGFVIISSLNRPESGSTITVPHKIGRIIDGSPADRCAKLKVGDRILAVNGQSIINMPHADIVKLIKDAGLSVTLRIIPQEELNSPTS
Assay: holdup assay
Parameters: key: below the threshold = too weak to quantify, mostly under pKd 3.1 to 4
Conditions: plain residues with an end cap or a label only (N-terminal biotin on a linker: ado-ado)

pKd	Binder
4.26	DTKNYKQTSV [CRIPT, Q9P021]

Target: MAST1, Q9Y2H9
Sequence (Q9Y2H9 962-1065): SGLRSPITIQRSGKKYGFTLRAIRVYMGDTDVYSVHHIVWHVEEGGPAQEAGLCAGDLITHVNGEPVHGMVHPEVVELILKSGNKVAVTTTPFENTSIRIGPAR
Assay: holdup assay
Parameters: key: below the threshold = too weak to quantify, mostly under pKd 3.1 to 4
Conditions: plain residues with an end cap or a label only (N-terminal biotin on a linker: ado-ado)

pKd	Binder
4.82	DTKNYKQTSV [CRIPT, Q9P021]

Target: NHERF2_2, Q15599
Sequence (Q15599 142-238): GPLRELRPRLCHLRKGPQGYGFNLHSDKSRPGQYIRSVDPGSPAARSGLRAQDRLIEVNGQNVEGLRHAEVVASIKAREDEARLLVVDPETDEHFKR
Assay: holdup assay
Parameters: key: below the threshold = too weak to quantify, mostly under pKd 3.1 to 4
Conditions: plain residues with an end cap or a label only (N-terminal biotin on a linker: ado-ado)

pKd	Binder
3.73	DTKNYKQTSV [CRIPT, Q9P021]

Target: T6, PARD3B_1, Q8TEW8
Assay: holdup assay
Parameters: key: below the threshold = too weak to quantify, mostly under pKd 3.1 to 4
Conditions: plain residues with an end cap or a label only (N-terminal biotin on a linker: ado-ado)

pKd	Binder
3.48	DTKNYKQTSV [CRIPT, Q9P021]

Target: PARD3_3, Q8TEW0
Sequence (Q8TEW0 582-685): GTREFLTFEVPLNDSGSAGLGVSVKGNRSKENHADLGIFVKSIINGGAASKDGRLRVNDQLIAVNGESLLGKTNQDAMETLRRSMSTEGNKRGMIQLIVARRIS
Assay: holdup assay
Parameters: key: below the threshold = too weak to quantify, mostly under pKd 3.1 to 4
Conditions: plain residues with an end cap or a label only (N-terminal biotin on a linker: ado-ado)

pKd	Binder
below the threshold	DTKNYKQTSV [CRIPT, Q9P021]

Target: PTPN3, P26045
Sequence (P26045 505-587): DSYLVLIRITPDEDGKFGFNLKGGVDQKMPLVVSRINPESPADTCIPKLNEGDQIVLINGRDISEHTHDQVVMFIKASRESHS
Assay: holdup assay
Parameters: key: below the threshold = too weak to quantify, mostly under pKd 3.1 to 4
Conditions: plain residues with an end cap or a label only (N-terminal biotin on a linker: ado-ado)

pKd	Binder
5.07	DTKNYKQTSV [CRIPT, Q9P021]

Target: T7, RADIL, Q96JH8
Assay: holdup assay
Parameters: key: below the threshold = too weak to quantify, mostly under pKd 3.1 to 4
Conditions: plain residues with an end cap or a label only (N-terminal biotin on a linker: ado-ado)

pKd	Binder
below the threshold	DTKNYKQTSV [CRIPT, Q9P021]

Target: T8, SHANK1, Q9Y566
Assay: holdup assay
Parameters: key: below the threshold = too weak to quantify, mostly under pKd 3.1 to 4
Conditions: plain residues with an end cap or a label only (N-terminal biotin on a linker: ado-ado)

pKd	Binder
below the threshold	DTKNYKQTSV [CRIPT, Q9P021]

Target: T9, SYNJ2BP, P57105
Assay: holdup assay
Parameters: key: below the threshold = too weak to quantify, mostly under pKd 3.1 to 4
Conditions: plain residues with an end cap or a label only (N-terminal biotin on a linker: ado-ado)

pKd	Binder
5.12	DTKNYKQTSV [CRIPT, Q9P021]

Target: T10, TJP3_3, O95049
Assay: holdup assay
Parameters: key: below the threshold = too weak to quantify, mostly under pKd 3.1 to 4
Conditions: plain residues with an end cap or a label only (N-terminal biotin on a linker: ado-ado)

pKd	Binder
below the threshold	DTKNYKQTSV [CRIPT, Q9P021]
